Read-outs that look alike come from different tables or passages of the source.
Assays:
LPEAG = test: In vitro sortase kinetics HPLC assay, LPEAG substrate; format: biochemical
Method: See below for details on sortase expression and purification, and on the synthesis of Abz-LPETGK(Dnp)-CONH2 (SEQ ID NO: 19). […] Reactions were initiated with the addition of enzyme and incubated at 22.5° C. for 3 to 20 minutes before quenching with 0.5 volumes of 1 M HCl. Five to ten nmol of peptide from the quenched reactions were injected onto an analytical reverse-phase Eclipse XDB-C18 HPLC column (4.6×150 mm, 5 μm, Agilent Technologies) and chromatographed using a gradient of 10 to 65% acetonitrile with 0.1% TFA in 0.1% aqueous TFA over 13 minutes. Retention times under these conditions for the Abz-LPETGK(Dnp)-CONH2 (SEQ ID NO: 19) substrate, the released GKDnp peptide, and the Abz-LPETGGG-COOH (SEQ ID NO: 20) product were 12.8, 10.4, and 9.1 min, respectively. To calculate the percent conversion, the ratio of the integrated areas of the Abz-LPETGGG-COOH (SEQ ID NO: 20) and Abz-LPETGK(Dnp)-CONH2 (SEQ ID NO: 19) peptide Abs220 peaks was compared to a standard curve generated by mixing the product and starting peptide in known ratios. To determine […] and Km, reaction rates were fit to the Michaelis-Menten equation using OriginPro 7.0 software. All kinetics values reported represent the average of at least three measurements. Percent conversion was also calculated by using the ratio of the integrated areas of the GK(Dnp)-CONH2 and Abz-LPETGK(Dnp)-CONH2 peptide Abs355 peaks were compared directly (Example 5). To determine kcat and Km, LPETG, reaction rates were fit to the Michaelis-Menten equation using Microsoft Excel using the Solver add-in. To determine Km,GGG and KH, reaction rates were fit to the modified Michaelis-Menten, for which KH is as defined when KH<<Km,GGG.
Assays to determine eSrtA, eSrtA(2A-9) and eSrtA(4S-9) specificity were performed by preparing 10 μM stocks of Abz-LXEXGK(Dnp) (SEQ ID NO: 75) peptides in 300 mM Tris pH 7.5, 150 mM NaCl, 5 mM CaCl2, 5% v/v DMSO, and 100 mM Gly-Gly-Gly-COOH (GGG). Reactions were performed by adding eSrtA(2A-9) to a final concentration of 450 nM, eSrtA(4S-9) to a final concentration of 115 nM or eSrtA to a final concentration of 47.5 nM and a final volume of 100 μL, then incubating at 22.5° C. for 15 minutes. Reactions were quenched by the addition of 0.2 volumes of 5 M HCl, then were injected onto an analytical reverse-phase Eclipse XDB-C18 HPLC column (4.6×150 mm, 5 μm, Agilent Technologies) and chromatographed using a gradient of 10 to 65% acetonitrile with 0.1% TFA in 0.1% aqueous TFA over 13 minutes. Retention times under these conditions for the Abz-LPETGK(Dnp)-CONH2 (SEQ ID NO: 19) substrate, the released GKDnp peptide, and the Abz-LPETGGG-COOH (SEQ ID NO: 20) product were 12.8, 10.4, and 9.1 min, respectively, while the remaining Abz-LXEXGK(Dnp)-CONH2 (SEQ ID NO: 74) substrates varied in retention time between 9 and 13 minutes. To calculate the percent conversion, the ratio of the integrated areas of the GK(Dnp)-CONH2 and Abz-LPETGK(Dnp)-CONH2 (SEQ ID NO: 19) peptide Abs355 peaks were compared directly. Subsequent determination of kcat/Km and KH were performed as described for in vitro SrtA characterization.
The original pentamutant comprising the mutations P94R, D160N, D165A, K190E, and K196T is referred to as eSrtA. Sortase variants herein were evolved using eSrtA as the parent enzyme in the evolution experiments. In some cases, an evolved sortase comprises a N160K mutation instead of a D160N or a T196S mutation instead of a K196T. Parameters are reported with their standard deviations as determined from three technical replicates. kcat, Km and kcat/Km parameters were determined at 100 mM GGG concentration, while Km,GGG and KH parameters were determined at 1 mM concentration of the listed substrate.

[1] = Materials (surface) functionalization of GGG-PEG 96-well plates; format: biochemical; details: Alexa Fluor 488-LAETGG or Alexa Fluor 647-LPESGG, 2 hours
Method: FIG. 21A-D show applications of evolved sortases. (A) N- and C-terminal labeling of fibroblast growth factors FGF1 and FGF2. Tandem SUMO-TEV cleavage site-FGF1/2-LPESG-His6 (SEQ ID NO: 27) constructs were treated with eSrtA(4S-9) in the presence of GGG-PEG, then with eSrtA(2A-9) and TEV protease in the presence of Alexa Fluor750-LAETGG (SEQ ID NO: 35) and purified to afford the final conjugates in up to 20% yield (Table 3). The crude reactions were analyzed by SDS-PAGE and scanned for fluorescence at 700 nm. (B) Surface functionalization using eSrtA(2A-9) and eSrtA(4S-9). […] The total fluorescence of the resulting surfaces was measured at 488 nm or 647 nm, then normalized to the fluorescent intensities obtained from the samples containing eSrtA(2A-9)+488-LAETG (SEQ ID NO: 5) or eSrt(4S-9)+647-LPESG (SEQ ID NO: 3). […]
GGG-functionalized substrate was generated by incubating 100 μL of 2 μM biotin-PEG (5K)-GGG in streptavidin coated 96 well microplates (Pierce) for 2 hours at room temperature, and washed three times with TBST buffer (20 mM Tris, 100 mM NaCl, pH 7.5 with 0.05% Tween 20). […] Total fluorescent intensities were measured at 488 nm and 647 nm using a Biotek Synergy NEO HTS Multi Mode microplate reader. […]

[2] = Sub LPEAG, 100 mM GGG, read-out: Km

Molecule	KH (LPEAG; 1 mM LPEAG)	Km (LPEAG; 1 mM LPEAG, read-out: Km,GGG)	Kcat (Hz) (LPEAG; Sub LPEAG, 100 mM GGG)	Km (LPEAG; [2])	modification of GGG-PEG-functionalized surfaces [1]
eSrtA (protein) QAKPQIPKDKSKVAGYIEIPDADIKEPVYPGPATREQLNRGVSFAEENESLDDQNISIAGHTFIDRPNYQFTNLKAAKKGSMVYFKVGNETRKYKMTSIRNVKPTAVEVLDEQKGKDKQLTLITCDDYNEETGVWETRKIFVATEVK	599 ± 41 µM	48.4 ± 3.1 mM	0.74 ± 0.04 Hz	0.0834 ± 0.0006 mM	
eSrtA(4S-9): P94R, N98D, S102C, A104V, A118T, F122A, K134R, F144L, D160N, D165A, I182V, E189F, K190E, K196T (protein) QAKPQIPKDKSKVAGYIEIPDADIKEPVYPGPATREQLDRGVCFVEENESLDDQNISITGHTAIDRPNYQFTNLRAAKKGSMVYLKVGNETRKYKMTSIRNVKPTAVEVLDEQKGKDKQLTLVTCDDYNFETGVWETRKIFVATEVK	193 ± 30 µM	41 ± 4 mM	1.90 ± 0.01 Hz	0.154 ± 0.003 mM	significant modification only on its cognate substrate
eSrtA(2A-9): P94R, S102C, A104H, E105D, K138P, K152I, N160K, K162H, T164N, D165A, K173E, I182V, K190E, T196S (protein) QAKPQIPKDKSKVAGYIEIPDADIKEPVYPGPATREQLNRGVCFHDENESLDDQNISIAGHTFIDRPNYQFTNLKAAKPGSMVYFKVGNETRIYKMTSIRKVHPNAVEVLDEQEGKDKQLTLVTCDDYNEETGVWESRKIFVATEVK					significant modification only on its cognate substrate

From patent US10202593B2, “Evolved sortases and uses thereof” (President and Fellows of Harvard College, priority 2013, dated 2019)
